Reference: the nanobody polyreactivity screen of Harvey et al. (2022)

experiment: yeast display, Sf9 membrane polyspecificity reagent, FACS + sequencing; frameworks hold sequencing errors
Procedure, shortened: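 Polyreactivity labels are assigned by the sorting gate from which each nanobody was recovered. The gates were low and high (top ~1%), set on anti-HA fluorescence for expression and streptavidin fluorescence for reagent binding. Before sorting, galactose-induced (36–48 hours) yeast display cells were stained for 1 hour at 4 °C with 10% biotinylated, detergent-solubilized Sf9 membrane reagent.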

Row | Sequence | polyreactivity (PSR sort gate)
1 | QVQLVESGGGLVQAGGSLRLSCAASARTFSRSALGWARQAPGKERELVAAISWSGGSTYYADSVKGRFTISRDKAKNSVYLQMNSLNPEDTAVYYCAAYSRWLPAYDYWGQGTQVTVSS | high polyreactivity
2 | QVQLVESGGGLVQAGGSLRLSCAASARTYGANAMGRYRQAPGKERELVAAISYHGTRTYYADSVKGRFTISRDNAKNTVYLQMNSLKPEDTAVYYCAAVCKPGVYQEGDEWGQGTQVTVSS | high polyreactivity
3 | QVQLVESGGGLVQAGGSLRLSCAASASIFRYYAMGWYRQAPGKERELVAAISYSGGSTYYADSVKGRFTISRDNAKNTVYLQMNSLKPEDTAVYYCAVPLICVDGYAYDYWGQGTQVTVSS | low polyreactivity
4 | QVQLVESGGGLVQAGGSLRLSCAASASIFYQNAMGWYRQAPGKERELVAAISSAGSTYYADSVKGRFTISRDNAKNTVYLQMNSVKPEDTAVYYLLRGQGTQVTVSS | low polyreactivity
5 | QVQLVESGGGLVQAGGSLRLSCAASASIFYRYAMGWFRQAPGKERELVAAISWRVTSTYYADSVKGRFTISRDNSKNTVYLQMNSLKPEDTAVYYCATAGTYTGGEGYWGQGTQVTVSS | high polyreactivity
6 | QVQLVESGGGLVQAGGSLRLSCAASASTFGSYAMGWYRQAPGKERELVAAISRAGSTYADSVKGRFTISRDNAKNTVYLQMNSLKTEDTAVYYCAKRDYALYYGYDYWGQGTQVTVSS | low polyreactivity
7 | QVQLVESGGGLVQAGGSLRLSCAASASTFVYNAKGWYRQAPGKERELVASITRSGSSTYYADSVKGRFTISRDNAKNTVYLQMNSLKPEDTAVYYCDVRYSVLSNYRYYYWGQGTQVTVSS | low polyreactivity
8 | QVQLVESGGGLVQAGGSLRLSCAASASTLYSYAMGWYRQAPGKEREFVAAITSDDGSKYYADSVKGRFTISRDNAKNTVYLQMNSLKQEDTAVYYCATAASVEYNYWGEGTQVTVSS | low polyreactivity
9 | QVQLVESGGGLVQAGGSLRLSCAASAYAMGWYRQAPGKERELVAAITVSGGSTHYADSVKGRFTISRDNAKNTVYLQMNSLKPEDTAVYYCNARYDVWYYYWGQGTQVTVSS | low polyreactivity
10 | QVQLVESGGGLVQAGGSLRLSCAASGAIFFVNDMGWYRQAPGKERELVAAITYSSGGTYYADSVKGRFTISRDNAKNTVYLQMNSLKPEDTAVYYCAVDFFLSYYSDMDYWGQGTQVTVSS | low polyreactivity
11 | QVQLVESGGGLVQAGGSLRLSCAASGAIFRYYAMGWYRPAPGKEREFVAAIRGSGGSPYYADSVKGRFTISRDNAKNTVYIQMISLKPEDTAVYYCAARKYSDRQVWYCYWGHGTQVTVSS | high polyreactivity
12 | QVQLVESGGGLVQAGGSLRLSCAASGATFRIDAMGWYREAPGKERELVAAIARGGTSTYYADSVKGRFTISRDNAKNTVNLQMNSLKPEDTAVYYCAKRDQDRTFPNGYWGQGTKVTVSS | high polyreactivity
13 | QVQLVESGGGLVQAGGSLRLSCAASGATFSYYAMGWYRQAPGKERELVAAISYSGGSTYYADSVKGRFTISRDNAKNTVYLQMNSLKPEDTAVYYCNARDPYYGDPSSLPDTRSRSDYWGQGTQVTVSS | low polyreactivity
14 | QVQLVESGGGLVQAGGSLRLSCAASGATFYLNDMGWYREAPGKERELVAAIDWSGGSTYYADSVKGRFTISRDNAKNTVYLQMNSLKPEDTAVYYCAARLVYEWRRLDYFIAWDYCGQGTQVTVSS | low polyreactivity
15 | QVQLVESGGGLVQAGGSLRLSCAASGCIFRYYAMGWYRQAPGKERELVAAISWGGGSTYYADSVKGRCTISRDNAKNTVYLQINSLKPEDTAVYYCNTYTYAWSRSKRGYWGQGTQVTVSS | high polyreactivity
16 | QVQLVESGGGLVQAGGSLRLSCAASGCIFSDSTMGWYRQAPGKERELVAAISGIGGSTYYADSVKGRFTISRDNAKNTVYLQMNSLKPEDTAVYYCAADDYYYPYVSHDYWGQGTQVTVSS | low polyreactivity
17 | QVQLVESGGGLVQAGGSLRLSCAASGCIFYPYAMGWYRQAPGKERELVAAITYSGGSTYADSVKGRFTISRDNAKNTVYLQMNSLKPEDTAVYYCNAKFYFYGGTYIVKYDYWGQGTQVTVSS | high polyreactivity
18 | QVQLVESGGGLVQAGGSLRLSCAASGCTSTSNAMGWYRQAPGKERELVALISSGGSTYYAVSVKGRFTISRDNAKNTVYLQMNSLKQEDTAVYYCAARRGTGSYSYRYPYGYDYWGQGTQVTVSS | low polyreactivity
19 | QVQLVESGGGLVQAGGSLRLSCAASGFAFSYYAMGWYRQAPGKEREFVASIDWSGGSTYYADSVKGRFTISRDNAKNTVYLQMNSLKAEDTAVYYCAAELDYFPGYDYWGQGTQVTVSS | low polyreactivity
20 | QVQLVESGGGLVQAGGSLRLSCAASGFICGYYAMGWYRQAPGKERELVADISRGGNTNYAESVKGRFTISRDNAKNSVYLQMNSLKPEDTAVYYCARYRRGKMDYWGQGTQVTVSS | high polyreactivity
21 | QVQLVESGGGLVQAGGSLRLSCAASGFIFAANAMGRYRQAPGKEREMVAAISESGGSTYYADSVKGRFTISRDNAKNTVYLQLNSLKPEDTAVYYCNADIVWSPVLGEYYYWGQGTQVTVSS | high polyreactivity
22 | QVQLVESGGGLVQAGGSLRLSCAASGFIFAAYAMGWYRQAPGKERELVAAITWDGGSTYYADSVKGSFTISRDNAKNTVYLQMNSLKPEDTAVYYCAARRRHGYDYWGQGTQVTVSS | high polyreactivity

Row | Sequence | polyreactivity (PSR sort gate)
23 | QVQLVESGGGLVQAGGSLRLSCAASGFIFAFYARGWYRQAPGKERELVASISRRSGSTYYADSVKGRFTISRDNAKNNVYLQMNSLKPEDTAVYYCSADRPPWETYGYDYWGQGTQVTVSS | low polyreactivity
24 | QVQLVESGGGLVQAGGSLRLSCAASGFIFAGYVMGWSRQAPGKERELVAAISSGGRTYYADSVKGRFTISRDNAKNTVYLQMNSLKPEDTAVYYCAAARWQVRATEGNYWGQGTQVTVSS | high polyreactivity
25 | QVQLVESGGGLVQAGGSLRLSCAASGFIFANNAMGWYRQAPGKERELVAAITSRGASTYYADSVKGRFTISRDNAKNTVYLQMNSLKPEDTAVYYCAKATYHYRRYYWGQGTQVTVSS | high polyreactivity
26 | QVQLVESGGGLVQAGGSLRLSCAASGFIFANNAMVWYRQAPGKERELVAVISQRGGRTYYADSVKGRFTISRDNAKNTVYLQMNSLKPADTAVYYCAASYSIAYVSPRNWHDYWGQGTQVTVSS | low polyreactivity
27 | QVQLVESGGGLVQAGGSLRLSCAASGFIFANYAMGWYRQAPGKERELVAVISQRGGRTYYADSVKGRFTISRDNAKNTVYLQMNSLKPEDTAVYYCNAVTGEWGQGTQVTVSS | low polyreactivity
28 | QVQLVESGGGLVQAGGSLRLSCAASGFIFARYAMGWNRQAPGKERELVAAISTSGGSTYYADSVKGRFTISRDNAKNTVYLQMNSLNPEDTAVYYCNKLRLSRLVHPSGYYWGQGTQVTVSS | high polyreactivity
29 | QVQLVESGGGLVQAGGSLRLSCAASGFIFASYAMGWYRQAPGTERELVAAISWRGGSTYYADSVKGRFTISRDNAKNTVYLQMNSLKPEDTAVYYCNAYGYDGTGRGYDTLDYWGQGTQVTVSS | low polyreactivity
30 | QVQLVESGGGLVQAGGSLRLSCAASGFIFAWYAMGWYRQAAGKERQLVATISSSGARTYYADSVKGRFTISRDNAKITVYLQMNSLKPEDTAVYYCAFGSVGRLKFYYWGQGTQVTVSS | high polyreactivity
31 | QVQLVESGGGLVQAGGSLRLSCAASGFIFAWYAMGWYRQAPGKERELVAAIDYSDGTTYYADSVKGRFTISRDNAKNTVYLQMNSLKPEDTAVYYCAAYNEFVYEDDYWGQGTQVTVSA | low polyreactivity
32 | QVQLVESGGGLVQAGGSLRLSCAASGFIFAYNAMGWYRQAPGKERELVAAISSRGSRTYYADSVKGRFTISRDKAKNTVYLQMNSLKPEDTAVYYCAARYSRGGFGYWGQGTQVTVSS | high polyreactivity
33 | QVQLVESGGGLVQAGGSLRLSCAASGFIFAYNAMGWYRQAPGKERELVAAISWSGGSTYYADSVKGRFTISRDNAKNTVFLQMNSLLPEDTAVYYCAARYRRNKYYYWGQGTQVTVSS | high polyreactivity
34 | QVQLVESGGGLVQAGGSLRLSCAASGFIFAYNAMGWYRQAPGKERELVAAISWSGGSTYYADSVKGRFTISRDNAKNTVYLQLNSLKPEDTAVYYCNKYIRYPFKRYGYWGQGTQVTVSS | high polyreactivity
35 | QVQLVESGGGLVQAGGSLRLSCAASGFIFAYYAMGWYRQAPGKERELVAAITNSGGSTYYADSVKGRFTISRDNAKNTVYLQMNSLKPEDTAVYYCAAVIRPRYYQVRPRYDYWGQGTQVTVSS | low polyreactivity
36 | QVQLVESGGGLVQAGGSLRLSCAASGFIFAYYAMGWYRQAPGKERELVAAITSSGGSTYYADSVKGRFTISRDNAKHTVYLQMNSLKPEDTAVYYCNAVPRHYKGYYWGQGTQVTVSS | high polyreactivity
37 | QVQLVESGGGLVQAGGSLRLSCAASGFIFCINAMGWYRQAPGKERELVAAISRSGGRTYYADSVKGRFTISRDNAKNTVYLQMNSLKPEDTAVYYCAADKASYTNYDGDYWGQGTQVTVSS | high polyreactivity
38 | QVQLVESGGGLVQAGGSLRLSCAASGFIFDAYAMGWYRQAPGKERELVAGISIGGRTNYADSVKGRFTISRDNAKNTVYLQMNSLKPEDTAVYYCAARNYRYYYGSYYRGPITNYEYWGQGTQVTVSS | low polyreactivity
39 | QVQLVESGGGLVQAGGSLRLSCAASGFIFDDNAMGWSRQAPGKDWELVAASTSGGGSTYYADSVKGRFTISRDNAKNTVYLQMTSLKPEDTAVYYCYAVPSQPDEFDYWGQGTQATVSS | low polyreactivity
40 | QVQLVESGGGLVQAGGSLRLSCAASGFIFDDNAMGWYRQAPGKEREVVAAITSGGGSTYYADSVKGRFTISRDNAKNTVYLQMNSLKPEDTAVYYCNAVPSQHDEFDYWGQGTQVTVSS | low polyreactivity
41 | QVQLVESGGGLVQAGGSLRLSCAASGFIFDEYAMGWYRQAPGKERELVAAISWSGSRTYYADSVKGRFTISRDNAKNTVYLQMNRLKPEDTSVYYCAKVTGVVAGRRNYWGQGTQVTVSS | low polyreactivity
42 | QVQLVESGGGLVQAGGSLRLSCAASGFIFDGNAMGWYRQAPGKERELLAAISWDGGTYYADSVKGRFTISRDNAKNTVYLQMNSLKPEDTAVYYCNKPYGAETAHREFDYWGQGTQVTVSS | low polyreactivity
43 | QVQLVESGGGLVQAGGSLRLSCAASGFIFDGYAMGWYRPAPGKERELVAAIDSGGDRTYYADSVKGRFTISRDNAKNTVYLQMNSLKPEDTAVYYCAADSSDPTGYDYWGQGTQVTVSS | low polyreactivity
